Measurements: patent US20060084798, “cDNAs and proteins involved in hypoxia, circadian and orphan signal transduction pathways, and methods of use” (published 2006)
Read-outs that look alike come from different tables or passages of the source.

Legend:
ARNT = ARNT (Homo sapiens, UniProt P27540 P27540:1-789); experiment: EMSA; ARNT alone; details: label: 32P
MOP1 (HIF1alpha) [1] = biological target: T1, MOP1 (HIF1alpha) (Homo sapiens, UniProt Q16665 SEQ:1-826); experiment: EMSA; MOP1 alone; details: label: 32P
T1 sequence (Q16665 whole entry): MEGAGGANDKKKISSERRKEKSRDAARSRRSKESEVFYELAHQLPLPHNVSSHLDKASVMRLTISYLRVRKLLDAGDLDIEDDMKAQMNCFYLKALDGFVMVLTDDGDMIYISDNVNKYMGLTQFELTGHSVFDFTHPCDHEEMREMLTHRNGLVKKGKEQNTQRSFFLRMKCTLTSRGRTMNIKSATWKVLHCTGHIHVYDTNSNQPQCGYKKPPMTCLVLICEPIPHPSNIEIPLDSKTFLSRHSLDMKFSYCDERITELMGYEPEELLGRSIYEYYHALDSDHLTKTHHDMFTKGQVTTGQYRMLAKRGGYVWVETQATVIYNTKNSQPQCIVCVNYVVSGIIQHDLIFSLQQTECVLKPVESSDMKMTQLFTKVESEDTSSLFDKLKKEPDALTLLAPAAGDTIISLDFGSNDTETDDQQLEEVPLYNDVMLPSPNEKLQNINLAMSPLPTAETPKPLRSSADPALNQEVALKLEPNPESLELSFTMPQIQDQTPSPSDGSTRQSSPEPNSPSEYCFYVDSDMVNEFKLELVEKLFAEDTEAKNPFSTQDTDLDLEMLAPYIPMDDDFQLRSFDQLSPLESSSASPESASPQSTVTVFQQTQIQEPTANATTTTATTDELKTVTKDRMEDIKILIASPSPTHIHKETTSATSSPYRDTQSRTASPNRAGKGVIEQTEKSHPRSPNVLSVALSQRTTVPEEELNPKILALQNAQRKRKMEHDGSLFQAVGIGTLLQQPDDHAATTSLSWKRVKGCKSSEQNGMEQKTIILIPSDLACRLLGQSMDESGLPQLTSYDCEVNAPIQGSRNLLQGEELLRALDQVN

[2] = biological target: MOP7 (HIF3alpha)/human ARNT heterodimer (Mus musculus, UniProt Q0VBL6;P27540 Q0VBL6:1-662,P27540:1-789); experiment: EMSA; abolished by anti-ARNT; details: label: 32P
Method: Gel-shift assay. To generate a double strand oligonucleotide probe containing the core HRE element, 50 ng of oligonucleotide OL414 was end-labeled with [γ-³²P]ATP and was annealed with 10 fold excess of cold complementary oligonucleotide OL415. […] For expression of the bHLH-PAS proteins, mMOP7 (PL1025) and hARNT (PL87) were synthesized in a reticulocyte lysate in the presence of [³⁵S]methionine. The amount of each protein synthesized was calculated by measuring radioactivity and estimated to be approximately 1 fmol in each 10 μl gel-shift reaction. Each gel-shift assay was performed with 100,000 cpm of oligonucleotide probe per 10 μl reaction. To confirm complex identity, 1 μl of anti-ARNT sera was used to supershift the DNA bound protein complex.
As a biochemical proof that MOP7 was a bona fide α-class HIF, we performed gel-shift and transient transfection analyses. Because HIF1α and HIF2α are known to pair with the β-class HIF subunit ARNT, we predicted that MOP7 would also pair with ARNT. Based upon sequence identity in their basic regions, we also predicted that a MOP7-ARNT would bind the HRE core sequence, TACGTG. […] First, the MOP7-ARNT-HRE complex was abolished by anti-ARNT IgGs but not by preimmune antibodies. Second, the complex was blocked by an excess of HRE containing oligonucleotide but not by oligonucleotides with a single mutation within the core HRE sequence. […]

[3] = biological target: T2, MOP1 (HIF1alpha)/ARNT heterodimer (Homo sapiens, UniProt Q16665;P27540 Q16665:1-826,P27540:1-789); experiment: EMSA; oligo assignment by core; supershifted by antisera; details: label: 32P
T2 sequence (Q16665 whole entry, chain 1 of 2): as the sequence (Q16665 whole entry) above
T2 sequence (P27540 whole entry, chain 2 of 2): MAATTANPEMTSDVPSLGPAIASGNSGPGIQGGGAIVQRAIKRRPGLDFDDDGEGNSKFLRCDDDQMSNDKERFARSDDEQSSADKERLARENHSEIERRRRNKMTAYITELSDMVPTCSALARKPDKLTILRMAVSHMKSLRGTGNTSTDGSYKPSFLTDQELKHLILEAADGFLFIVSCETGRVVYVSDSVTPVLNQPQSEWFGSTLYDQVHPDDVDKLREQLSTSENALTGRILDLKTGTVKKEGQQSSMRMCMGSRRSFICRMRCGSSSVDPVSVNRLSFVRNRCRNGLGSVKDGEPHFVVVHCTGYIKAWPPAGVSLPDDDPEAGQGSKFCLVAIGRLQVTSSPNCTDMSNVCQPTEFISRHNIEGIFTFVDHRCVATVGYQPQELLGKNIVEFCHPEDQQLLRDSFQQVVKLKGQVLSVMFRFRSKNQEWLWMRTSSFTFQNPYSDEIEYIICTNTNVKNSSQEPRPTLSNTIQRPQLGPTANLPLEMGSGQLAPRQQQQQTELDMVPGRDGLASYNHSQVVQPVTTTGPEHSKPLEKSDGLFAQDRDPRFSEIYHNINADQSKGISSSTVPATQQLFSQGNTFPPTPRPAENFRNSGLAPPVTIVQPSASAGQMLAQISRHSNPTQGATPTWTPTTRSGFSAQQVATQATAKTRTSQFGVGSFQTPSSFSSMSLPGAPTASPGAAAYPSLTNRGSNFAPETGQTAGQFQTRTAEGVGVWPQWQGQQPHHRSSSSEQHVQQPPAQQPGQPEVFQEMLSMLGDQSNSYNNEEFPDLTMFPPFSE

MOP1 (HIF1alpha)/AHR = MOP1 (HIF1alpha)/AHR (UniProt Q16665;P35869 Q16665:1-826,P35869:1-848); experiment: EMSA; no complex with any bHLH-PAS family response element
Chain of MOP1 (HIF1alpha)/AHR (Q16665 whole entry, chain 1 of 2): as the sequence (Q16665 whole entry) above
Chain of MOP1 (HIF1alpha)/AHR (P35869 whole entry, chain 2 of 2): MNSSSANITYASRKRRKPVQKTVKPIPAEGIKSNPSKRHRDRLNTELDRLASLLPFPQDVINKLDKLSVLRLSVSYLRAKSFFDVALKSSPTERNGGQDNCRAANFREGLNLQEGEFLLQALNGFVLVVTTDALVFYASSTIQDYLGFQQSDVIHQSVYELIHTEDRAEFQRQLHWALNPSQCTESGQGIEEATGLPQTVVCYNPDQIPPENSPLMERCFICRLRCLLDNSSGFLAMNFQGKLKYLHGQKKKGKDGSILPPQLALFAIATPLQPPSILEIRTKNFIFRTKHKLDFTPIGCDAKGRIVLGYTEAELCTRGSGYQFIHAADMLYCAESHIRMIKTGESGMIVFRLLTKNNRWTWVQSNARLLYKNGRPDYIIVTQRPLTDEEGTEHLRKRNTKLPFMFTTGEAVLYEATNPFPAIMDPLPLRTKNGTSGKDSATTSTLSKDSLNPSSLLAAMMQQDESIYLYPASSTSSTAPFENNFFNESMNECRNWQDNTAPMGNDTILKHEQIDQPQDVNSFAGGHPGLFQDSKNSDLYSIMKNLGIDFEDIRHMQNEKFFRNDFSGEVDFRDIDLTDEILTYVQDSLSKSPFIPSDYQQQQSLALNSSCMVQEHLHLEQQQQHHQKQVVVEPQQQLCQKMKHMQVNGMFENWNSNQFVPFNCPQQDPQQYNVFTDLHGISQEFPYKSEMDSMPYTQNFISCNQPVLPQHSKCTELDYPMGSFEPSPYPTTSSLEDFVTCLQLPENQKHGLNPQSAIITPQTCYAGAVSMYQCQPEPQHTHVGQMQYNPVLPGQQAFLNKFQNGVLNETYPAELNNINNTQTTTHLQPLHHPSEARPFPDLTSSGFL

[4] = biological target: MOP2 (HIF2alpha)/ARNT heterodimer (Homo sapiens, UniProt Q99814;P27540 Q99814:1-870,P27540:1-789); experiment: EMSA; approximately equal to MOP1-ARNT; supershifted by antisera; details: label: 32P
[5] = biological target: T2, MOP1 (HIF1alpha)/ARNT heterodimer; experiment: EMSA; higher affinity than MOP1 or ARNT alone
[6] = biological target: T2, MOP1 (HIF1alpha)/ARNT heterodimer; experiment: EMSA
MOP1 (HIF1alpha) [7] = biological target: T1, MOP1 (HIF1alpha); experiment: EMSA; HIF1alpha alone
[8] = biological target: ARNT/HIF2alpha (transfected) (Homo sapiens, UniProt P27540;Q99814 P27540:1-789,Q99814:1-870); experiment: cell_activity; COS-1 luciferase
Method: (§1) Cell Culture and Transient Transfection. Transient transfections of COS-1 cells were performed by the Lipofectamine protocol (GIBCO) as described in Example 1. To mimic hypoxia, 100 μM of cobalt chloride was included in the cell growth media and incubated at 37° C. until harvest. To monitor the transcriptional activity of the MOP3-MOP4 or MOP3-CLOCK heterodimers, a synthetic reporter was constructed by annealing phosphorylated oligonucleotides OL1116 and OL1117 and cloning them into the BglII site in the reporter plasmid pGL3p (Promega). To measure the transcriptional activity of the MOP3-HIF1α or MOP3-HIF2α heterodimers, a synthetic reporter was constructed by annealing phosphorylated oligonucleotides OL1155 and OL1156 and then cloning them as above. Luciferase levels were reported in relation to β-galactosidase activity as described in Example 1.
(§2) To determine if MOP3 formed a transcriptionally active complex with either HIF1α or HIF2α in vivo, we constructed a synthetic reporter using six copies of the M13 element described above. […] Like ARNT, upon exposure of these transfected cells to cobalt chloride to simulate cellular hypoxia, MOP3 interacted and drove transcription in complexes with both HIF1α and with HIF2α.

[9] = biological target: ARNT/HIF1alpha (transfected) (Homo sapiens, UniProt P27540;Q16665 P27540:1-789,Q16665:1-826); experiment: cell_activity; COS-1 luciferase
Method: as §1, §2

Chain of ARNT (P27540 whole entry, one chain of several): as the sequence (P27540 whole entry, chain 2 of 2) above

B1: OL414/OL415 TACGTG (HRE) (dsDNA)
DNA 1: TCGAGCTGGGCAGGGTACGTGGCAAGGC
DNA 2: TCGAGCCTTGCCACGTACCCTGCCCAGC
binding result (ARNT): no binding | binding result (MOP1 (HIF1alpha) [1]): no binding | binding result [2]: binds | binding result [3]: binds | binding result (MOP1 (HIF1alpha)/AHR; label: 32P): no binding | binding result [4]: binds

B2: OL445/OL446 CACGTG E-box (dsDNA)
DNA 1: TCGAGCTGGGCAGGTCACGTGGCAAGGC
DNA 2: TCGAGCCTTGCCACGTGACCTGCCCAGC
binding result [5]: binds | binding result (MOP1 (HIF1alpha)/AHR): no binding

B3: OL443/OL444 GTGCGTG (SAE) (dsDNA)
DNA 1: TCGAGCTGGGCAGGGTGCGTGGCAAGGC
DNA 2: TCGAGCCTTGCCACGCACCCTGCCCAGC
binding result [6]: no binding | binding result (MOP1 (HIF1alpha)/AHR): no binding

B4: OL447/OL448 TTGCGTG (DRE) (dsDNA)
DNA 1: TCGAGCTGGGCAGGTTGCGTGGCAAGGC
DNA 2: TCGAGCCTTGCCACGCAACCTGCCCAGC
binding result [6]: no binding | binding result (MOP1 (HIF1alpha)/AHR): no binding

B5: M13 element (dsDNA)
DNA 1: GCCCTACGTGACCC
DNA 2: GGGTCACGTAGGGC
binding result (MOP1 (HIF1alpha) [7]): no binding

B6: M13 reporter insert OL1155 (reporter carries six M13 copies) (dsDNA)
DNA 1: GATCGGATACGTGACCATTGGTTACGTGTCCATTGGATACGTGACC
DNA 2: GGTCACGTATCCAATGGACACGTAACCAATGGTCACGTATCCGATC
activity [8]: 8.1 fold | activity [9]: 14.1 fold
